Experimental data taken from patent US20240360477.

Test system: MCP-TGIRT (GsI-IIC RT) fusion
Experiment: cell_activity
Settings: control used for normalization, HEK293T

nanoluciferase mRNA with MS2 loops hybridized to DNA primer
activity (relative to TGIRT): 1
